Test results: US10858423B2, “Composition for the treatment of IGF-1R expressing cancer” (PIERRE FABRE MEDICAMENT, priority 2015, dated 2020)
Substitutions are numbered along the chain they refer to. Each block holds one molecule with its values, some of them ahead of it.

How the values were obtained:
IGF-1R on MCF-7 cells = biological target: T1, IGF-1R on MCF-7 cells (Homo sapiens, UniProt P08069); assay: IGF-1R internalization by FACS on MCF-7 cells; type: cell-based; conditions: Table 14c; MCF-7, 10 μg/ml, 4 h
T1 construct: host or cells: MCF-7
Method: (§1) MCF-7 cells were incubated with 10 μg/ml of chimeric antibodies at 4° C. for 20 min. Then, cells were washed and incubated at 4° C. or 37° C. for 4 h. The quantity of cell-surface bound antibody was determined using a secondary antibody. The ΔMFI defined as the difference between MFI measured at 4° C. and MFI measured at 37° C. after a 4 hour incubation time corresponded to the quantity of internalized second IGF-1R antibodies Ab. The percentage of internalization at 10 μg/ml of Ab were calculated as followed 100*(MFI at 4° C.-MFI at 37° C.)/MFI at 4° C. and presented in Table 12.
as §1, with “The capacity of the mAb hz208F2 H026/L024 to be internalized was assessed by flow cytometry. MCF-7” for “MCF-7”, “of” for “of chimeric”, “Then, cells were washed and incubated at 4° C. or 37° C. for 4 h.” left out, “internalized” for “internalized second IGF-1R antibodies”, “14a.” for “12.”
MCF-7 cells were incubated with 10 μg/ml of humanized antibodies at 4° C. for 20 min. […] The quantity of cell-surface bound antibody was determined using a secondary antibody on a FacsCalibur Flow cytometer (Becton Dickinson). […]

soluble form of h-IGF1R = biological target: T2, soluble form of h-IGF1R (Homo sapiens, UniProt P08069); assay: Biacore binding competition on captured soluble h-IGF1R; conditions: antibodies 50 μg/ml, 25° C.
T2 construct: a heterotetramer composed by two alpha chains and two extracellular domains of the beta chains; made in house
From the text: The experiment was run on a Biacore X100 device based on the Surface Plasmon Resonance technology. A CM5 sensor chip was activated with a mouse anti-polyHistidine IgG1 monoclonal antibody chemically linked to the carboxymethyldextran matrix using the amine coupling chemistry. Typically, 12451 RU and 12257 RU of antibodies were grafted on the flowcell 1 (FC1) and flowcell 2 (FC2) respectively. The classical HBS-EP+ buffer was used as the running buffer. This buffer was also used for the preparation of the solutions of the proteins. The experiment was carried at 25° C. and at a flow rate of […].
The soluble form of IGF1R produced in house is a heterotetramer composed by two alpha chains and two extracellular domains of the beta chains completed by a 6 Histidine sequence at their C-terminal end. The protein is injected during one minute on the FC2 at the concentration of 30 μg/ml (about 80 nM). The antibodies are injected at the concentration of 50 μg/ml (about 330 nM). Either a first antibody solution (FIGS. 35B and 35D) or the running buffer (FIGS. 35A and 35C) is injected during 90 s on both flowcells. A second antibody solution is then injected on both flow cells. The absence of binding of the second antibody after the binding of the first antibody is the proof that both antibodies bind to a nearby site on the antigen (FIG. 35B) At the opposite the binding of the second antibody after the binding of the first antibody is the proof that the binding site of the second antibody is out and away of the binding site of the first antibody (FIG. 35D). At the end of each cycle, the sensor chip surface is regenerated by an injection of a Glycine, HCl 10 mM pH 1.5 buffer during 30 s.
The levels of binding of the Ac2 (arrows) without (FIGS. 35A and 35B) or with an Ac1 (FIGS. 35C and 35D) were recorded 20 s after the end of the injection. The data are represented on the histogram graph in FIG. 36.

[1] = biological target: T3, MCF-7 breast adenocarcinoma cell line (Homo sapiens, UniProt P08069); assay: FACS binding of humanized variants on MCF-7
T3 construct: host or cells: MCF-7
Method: The binding properties of the humanized variants were evaluated by FACS analyses on the human MCF-7 breast adenocarcinoma cell line and the monkey cell line Cos-7 using increasing antibody concentrations. For that purpose, cells (1×10^6 cells/ml) were incubated with anti-IGF-1R antibodies for 20 min. at 4° C. in FACS buffer (PBS, 0.1% BSA, 0.01% NaN3). They were then washed 3 times and incubated with the appropriate secondary antibody coupled with Alexa 488 for 20 additional minutes at 4° C. in the dark before being washed 3 times in FACS buffer. The binding of anti-IGF-1R antibodies was immediately performed on viable cells which were identified using propidium iodide (that stains dead cells). The EC50 of binding expressed in molarity (M) was calculated using a nonlinear regression analysis (GraphPad Prims 4.0).

rhIGF-1R = biological target: T4, rhIGF-1R (Homo sapiens, UniProt P08069); assay: direct ELISA on rhIGF-1R coating (816C12, 810D12); type: binding; conditions: for OD values obtained at 5 μg/ml by ELISA, rhIGF-1R coating: OD at 450 nm; for EC50: ELISA dose response, Prism
T4 construct: poorly recognize the rhIGF-1R ECD protein when directly coated to ELISA plates; purchased R&D Systems 391-GR
Method: (§2) Further characterizations of 816C12 and 810D12 were then performed using hybridoma supernatant such as rhIGF-1R or rmIGF-1R or rhIR ELISA. In all direct ELISAs, proteins of interest were immobilized (1 μg/ml) to the bottom of each well. After saturation, hybridoma supernatants were added to the wells. After a 1-hour incubation period and a washing step, a solution of goat anti-mouse IgG—HRP labelled polyclonal antibody was used for detection, prior to the addition of the TMB substrate. The reaction was stopped with a 1M H2SO4 solution before reading the OD with a spectrophotometer at a 450 nm wavelength.
The dose response curves for the second IGF-1R antibodies on rhIGF-1R coating are presented in FIG. 1 for the 816C12 and in FIG. 1B for the 810D12. The values of the EC50 are determined using Prism application.

rmIGF-1R = rmIGF-1R (Mus musculus, UniProt Q60751); assay: direct ELISA on rmIGF-1R coating (816C12, 810D12); type: binding, murine; conditions: for OD values obtained at 5 μg/ml by ELISA, rmIGF-1R coating: OD at 450 nm; for binding to the murine form of the IGF-1R: ELISA
rmIGF-1R, sequence (Q60751 31-1373): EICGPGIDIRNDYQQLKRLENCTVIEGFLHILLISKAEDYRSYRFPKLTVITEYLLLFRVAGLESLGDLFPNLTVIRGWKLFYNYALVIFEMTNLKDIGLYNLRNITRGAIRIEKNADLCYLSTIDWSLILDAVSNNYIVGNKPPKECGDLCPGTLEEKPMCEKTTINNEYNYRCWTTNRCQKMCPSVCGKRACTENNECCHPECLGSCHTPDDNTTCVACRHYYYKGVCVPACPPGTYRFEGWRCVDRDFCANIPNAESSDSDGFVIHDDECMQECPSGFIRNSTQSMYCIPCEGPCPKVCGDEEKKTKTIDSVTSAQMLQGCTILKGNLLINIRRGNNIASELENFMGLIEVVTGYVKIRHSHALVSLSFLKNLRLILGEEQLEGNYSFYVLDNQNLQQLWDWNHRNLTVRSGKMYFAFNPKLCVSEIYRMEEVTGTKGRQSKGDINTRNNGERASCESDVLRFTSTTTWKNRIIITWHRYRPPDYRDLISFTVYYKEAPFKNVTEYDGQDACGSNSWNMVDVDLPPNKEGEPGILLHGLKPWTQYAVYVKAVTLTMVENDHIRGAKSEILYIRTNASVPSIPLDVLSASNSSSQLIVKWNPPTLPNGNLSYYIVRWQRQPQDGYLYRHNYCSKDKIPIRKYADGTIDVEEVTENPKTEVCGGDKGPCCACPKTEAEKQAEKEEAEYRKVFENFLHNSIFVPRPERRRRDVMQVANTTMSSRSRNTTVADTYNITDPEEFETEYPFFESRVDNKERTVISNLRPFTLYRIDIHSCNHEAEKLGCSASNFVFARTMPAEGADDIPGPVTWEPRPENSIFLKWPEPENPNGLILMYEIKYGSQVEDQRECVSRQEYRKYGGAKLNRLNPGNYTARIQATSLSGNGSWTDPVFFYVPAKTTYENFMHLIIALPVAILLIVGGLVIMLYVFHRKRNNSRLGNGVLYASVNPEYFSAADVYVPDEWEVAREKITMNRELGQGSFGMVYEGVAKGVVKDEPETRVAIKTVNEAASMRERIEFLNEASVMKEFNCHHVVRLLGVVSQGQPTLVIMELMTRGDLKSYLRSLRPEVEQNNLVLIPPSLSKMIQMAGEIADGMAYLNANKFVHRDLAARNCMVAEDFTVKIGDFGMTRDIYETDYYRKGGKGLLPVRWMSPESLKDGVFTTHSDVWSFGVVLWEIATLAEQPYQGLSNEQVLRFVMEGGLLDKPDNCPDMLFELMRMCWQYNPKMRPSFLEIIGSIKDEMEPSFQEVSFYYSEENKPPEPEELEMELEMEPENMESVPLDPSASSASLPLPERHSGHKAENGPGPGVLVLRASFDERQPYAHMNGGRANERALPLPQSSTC
Method: as §2

rhIR = rhIR (Homo sapiens, UniProt P06213); assay: direct ELISA on rhIR coating (816C12, 810D12); type: binding; conditions: for OD values obtained at 5 μg/ml by ELISA, rhIR coating: OD at 450 nm; for binding to the human IR: ELISA
Method: as §2

[2] = biological target: T5, IGF-1R, MCF-7 tumor cells (Homo sapiens, UniProt P08069); assay: IHC detection of IGF-1R on MCF-7 xenograft sections; design: key: No reactivity or membranous reactivity in less than 10% of tumour cells; 1+: Faint/barely perceptible membranous reactivity is detected in more than 10% of tumour cells. The cells are immunoreactive only in part of the membrane.; 2+: Weak to moderate complete membranous reactivity is seen in more than 10% of tumour cells.; 3+: Strong complete reactivity is seen in more than 10% of tumour cells; conditions: membranous algorithm; antibody 5 μg/ml; paraffin embedded tumor
T5 construct: from tissue; host or cells: MCF-7 xenograft tumour grown in Swiss/Nude mice, paraffin sections
Method: (§3) Sections of tissue from MCF-7 xenograft were deparaffinized, rehydrated, and placed in Target Retrieval Buffer 1× (Dako S1699) in a boiling bath pre-warm at 98° C. for heat-induced epitope retrieval at 98° C. for 40 minutes then 20 additional minutes in the Target Retrieval Buffer. After 3 washes in Tris Buffer Saline-0.05% tween 20 (TBS-T) (Dako S3006) the Endogenous peroxidase activity was blocked using Peroxidase Blocking Reagent (Dako K4007) for five minutes. Sections were washed with TBS-T and incubated a blocking reagent (UltraV block-TA-125UB-LabVision) for 5 minutes before incubation with either the 816C12 monoclonal antibody (at 5 μg/ml) or mouse IgG1/kappa (5 μg/ml, X0931, Dako) as negative control for 1 hours at room temperature. Sections were washed with TBS-T and incubated with Envision (Dako) for 30 minutes. Diaminobenzidine was used for development of a brown reaction product (Dako K3468). The slides were immersed in hematoxylin for 2 minutes to counterstain (Dako S3309).

IGF-1R, SBC-5 tumor = biological target: T6, IGF-1R, SBC-5 tumor (Homo sapiens, UniProt P08069); assay: IHC detection of IGF-1R on SBC-5 xenograft sections; design: key: No reactivity or membranous reactivity in less than 10% of tumour cells; 1+: Faint/barely perceptible membranous reactivity is detected in more than 10% of tumour cells. The cells are immunoreactive only in part of the membrane.; 2+: Weak to moderate complete membranous reactivity is seen in more than 10% of tumour cells.; 3+: Strong complete reactivity is seen in more than 10% of tumour cells; conditions: same protocol as MCF-7; paraffin embedded tumor
T6 construct: from tissue; host or cells: SBC-5 xenograft tumour grown in athymic mice, paraffin sections
Method: as §3
Level of IGF-1R was analyzed using the same protocol described in section 2.1 of the example 2 before.

% Internalization (IGF-1R on MCF-7 cells): 88%
ΔMFI (IGF-1R on MCF-7 cells): 468
binding as Ac2 after Hz208F2-4 injected as Ac1 (soluble form of h-IGF1R): completely blocks the binding of itself
B1: hz208F2 H077/L018: humanized 208F2; VH SEQ ID No. 57, VL SEQ ID No. 34 (antibody, V domains shown)
VH: QVQLVQSGAEVKKPGASVKVSCKASGYTFTSYYIHWVRQAPGQGLEWMGWIWPGDGSTKYAQKFQGRVTMTRDTSTSTVYMELSSLRSEDTAVYFCASPMITPNYAMDYWGQGTLVTVSS
VL: DIQMTQSPSSLSASVGDRVTITCRASQDISKYLNWYQQKPGKAPKLLIYYTSRLQSGVPSRFSGRGSGTDYSLTISSLQPEDFATYFCQQGSTLPYTFGGGTKVEIK
modifications: hz208F2 heavy chain H077, VH; hz208F2 Light chain L018, VL

EC50 [1]: 0.66 nM
B2: hz208F2 H049/L021: humanized 208F2; VH SEQ ID No. 41, VL SEQ ID No. 37 (antibody, V domains shown)
VH: B1 VH with I34M, T74K, T76S, F95Y
VL: B1 VL with Q55H, Y71F
modifications: hz208F2 heavy chain H049, VH; hz208F2 Light chain L021, VL

EC50 [1]: 0.58 nM
B3: hz208F2 H076/L021: humanized 208F2; VH SEQ ID No. 55, VL SEQ ID No. 37 (antibody, V domains shown)
VH: B1 VH with F95Y
VL: B1 VL with Q55H, Y71F
modifications: hz208F2 heavy chain H076, VH; hz208F2 Light chain L021, VL

OD values obtained at 5 μg/ml by ELISA, rhIGF-1R coating (rhIGF-1R): 2.136
EC50 (rhIGF-1R): 0.51 nM
OD values obtained at 5 μg/ml by ELISA, rmIGF-1R coating (rmIGF-1R): 1.293
binding to the murine form of the IGF-1R (rmIGF-1R): do not bind
OD values obtained at 5 μg/ml by ELISA, rhIR coating (rhIR): 0.048
binding to the human IR (rhIR): do not bind
IHC scoring of the staining of MCF-7 tumor cells [2]: 3+
IHC scoring of IGF-1R in SBC-5 tumor (IGF-1R, SBC-5 tumor): 1+
binding as Ac2 after Hz208F2-4 injected as Ac1 (soluble form of h-IGF1R): practically no effect
B4: 810D12: first IGF-1R mouse monoclonal antibody, hybridoma CNCM I-4893; VH SEQ ID No. 7, VL SEQ ID No. 8 (antibody, V domains shown)
VH: EVQLQQSGPELVKPGASVKMSCKASGHTFTSYMLHWVKQKPGQGLEWLGFINPYNDVTKYNENFKGKATLTSDKSSSTAYMELNSLTSEDSAVYFCVTTAYYGNGRYFDVWGAGTTVTVSS
VL: DIQMTQTTSSLSASLGDRVTISCRASQDITNYLTWYQQKPDGTVKVLIYYTSRLYSGVPSRFSGSGSGSDYSLTINNLEQEDIATYFCQQGYSLPWTFGGGTKLEIK
modifications: 810D12 I-4893, heavy chain, Variable domain; 810D12 I-4893, light chain, Variable domain

OD values obtained at 5 μg/ml by ELISA, rhIGF-1R coating (rhIGF-1R): 2.622
EC50 (rhIGF-1R): 0.41 nM
OD values obtained at 5 μg/ml by ELISA, rmIGF-1R coating (rmIGF-1R): 0.065
binding to the murine form of the IGF-1R (rmIGF-1R): do not bind
OD values obtained at 5 μg/ml by ELISA, rhIR coating (rhIR): 0.055
binding to the human IR (rhIR): do not bind
IHC scoring of the staining of MCF-7 tumor cells [2]: 3+
IHC scoring of IGF-1R in SBC-5 tumor (IGF-1R, SBC-5 tumor): 1+
binding as Ac2 after Hz208F2-4 injected as Ac1 (soluble form of h-IGF1R): practically no effect
B5: 816C12: first IGF-1R mouse monoclonal antibody, hybridoma CNCM I-4894; VH SEQ ID No. 17, VL SEQ ID No. 18 (antibody, V domains shown)
VH: EVQLQQSGPELVKPGASVKMSCKASGHTFTSYVLHWMKRKPGQGLEWIGYINPHNDVTKYNENFKGKATLTSDKYSSTVYMEVSSLTSEDSAVYYCVSTAYYGNGRYFDVWGAGTTVTVSS
VL: B4 VL with T30N, T34N, V46L, Y55H, P59S, S69T, N76S, Y92N, S93T
modifications: 816C12 I-4894, heavy chain, Variable domain; 816C12 I-4894, light chain, Variable domain
